Values of other authors in article PMC2928749.

Molecular target: hHR23B Ubl (Homo sapiens) (UniProt P54727)
Sequence (P54727 1-79): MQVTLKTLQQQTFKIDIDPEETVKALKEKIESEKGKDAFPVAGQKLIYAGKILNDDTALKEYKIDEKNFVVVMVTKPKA

Sequence of Ataxin-3 Josephin (P54252 1-183): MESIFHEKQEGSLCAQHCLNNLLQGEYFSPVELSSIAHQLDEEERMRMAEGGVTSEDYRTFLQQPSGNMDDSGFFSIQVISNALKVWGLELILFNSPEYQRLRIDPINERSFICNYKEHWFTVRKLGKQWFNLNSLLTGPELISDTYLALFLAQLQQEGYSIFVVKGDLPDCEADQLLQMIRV

Kd: 12 µM
Substance: Ataxin-3 Josephin (from UniProt P54252)
